From US12643954B2, “Anti-CD36 antibodies and their use to treat cancer” (ONA Therapeutics, S.L., priority 2020, dated 2026)

Columns and labels:
mouse CD36 = target: T1, mouse CD36 (Mus musculus, UniProt Q08857); test: ELISA binding to plate-coated mouse CD36; settings: recombinant mouse CD36 coated plates
T1 construct: purchased Sino Biological 50422-M08H
Experimental: To perform ELISA assays, 96-well ELISA plates were coated over night with human CD36 (Sino Biological, reference 10752-H08H) or mouse CD36 (Sino Biological, reference 50422-M08H) recombinant proteins at a concentration of 0.25 mg/ml. After two washes with PBS, plates were blocked with 4% skimmed milk in PBS for 1 hour at 37° C. Blocking solution was discarded and plates were washed five times with 200 μl/well PBS-Tween20 (0.5%). Primary antibodies were either omitted (control blocking solution treatment) or mixed in blocking solution at several dilutions ranging from 0.01 nM to 0.5 μM. The primary antibody solutions were added to the wells and incubated over night at 4° C. After 5 washes with 200 ul/well of PBS-Tween20 (0.5%), plates were incubated for 1 hour at room temperature with a goat anti-mouse HRP-conjugated antibody (Abeam, reference ab97235) diluted 1:2000 in blocking solution. Plates were then washed 5 times with 200 μl/well of PBS-Tween20 (0.5%), incubated with 100 μl/well TMB and detected after 10 minutes, 30 minutes, or 60 minutes with a spectrophotometer at a wave length of 630 nm.

[1] = target: T2, cells overexpressing human CD36 (Homo sapiens, UniProt P16671); test: FACS binding to cells overexpressing human CD36
T2 construct: expressed in transfected cells
T2 sequence (P16671 whole entry): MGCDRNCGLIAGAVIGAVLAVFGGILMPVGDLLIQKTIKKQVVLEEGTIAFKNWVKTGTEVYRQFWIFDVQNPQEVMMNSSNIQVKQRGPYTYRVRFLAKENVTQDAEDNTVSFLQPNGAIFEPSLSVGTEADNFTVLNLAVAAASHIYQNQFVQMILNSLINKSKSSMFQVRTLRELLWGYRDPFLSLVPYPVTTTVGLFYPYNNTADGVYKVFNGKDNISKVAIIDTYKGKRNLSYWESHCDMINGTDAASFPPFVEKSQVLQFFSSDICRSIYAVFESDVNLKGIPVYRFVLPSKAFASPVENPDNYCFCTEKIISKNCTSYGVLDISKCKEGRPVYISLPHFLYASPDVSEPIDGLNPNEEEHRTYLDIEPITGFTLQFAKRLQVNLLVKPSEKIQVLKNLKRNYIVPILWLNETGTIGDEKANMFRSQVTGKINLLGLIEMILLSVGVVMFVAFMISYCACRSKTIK
Experimental: For FACS analysis, cells were trypsinized, collected in a 15 mL tube and diluted in washing buffer (2% FBS in PBS). Cells were then centrifuged at 1500 rpm for 5 min at 4° C., supernatant was discarded, and cells were resuspended in fresh washing buffer. Anti-CD36 antibodies were either omitted (control wash buffer treatment) or serially diluted in washing buffer (dilution range up to 100 nM), and then added to the cells. Incubation was performed on ice for 1 hour. Cells were then centrifuged at 1500 rpm for 5 min at 4° C., supernatant was discarded, and cells were resuspended in fresh washing buffer. Finally, cells were incubated with a […] (BV421 Rat Anti-Mouse IgA, Becton Dickinson, reference 743293) diluted 1:100 in washing buffer, washed and analysed by FACS.

OVCAR-3 cells [2] = test: OVCAR-3 orthotopic mouse model of ovarian cancer (Example 7); type: in vivo
Experimental: (§1) Studies of the effects of the ONA-0-v1 anti-CD36 antibody on ovarian cancer were performed in NSG mice (immuno-deficient). The studies included only female mice. All mice were inoculated with commercially available OVCAR-3 (ATCC) cancer cells. OVCAR-3 cells were derived from a human progressive adenocarcinoma of the ovary (i.e., from an ovarian cancer). Prior to inoculation, the OVCAR-3 cells were cultured in a humidified incubator at 37° C. with 5% CO2, and were grown in RPMI-1640 supplemented with 5 μg ml^−1 penicillin/streptomycin, 0.01 mg/ml bovine inulin and 20% FBS (GIBCO).
For each mouse, a piece of an OVCAR-3 xenograft was implanted orthotopically. […] Mice implanted with OVCAR-3 also develop metastases in both the peritoneal wall and liver.
Treatment of the implanted mice began 23 days after implantation with the OVCAR-3 tumor pieces. Inoculated mice were divided into one of two treatment groups: vehicle injection control (n=9) or ONA-0-v1 treatment (n=9). Antibody treatments were administered via intraperitoneal (i.p.) injection daily at a dose of 3 mg/kg, while control mice received an equal volume of vehicle on the same schedule. Mice were sacrificed at the end of the treatment period. Upon sacrifice, organs and tissues were collected for performance of immunohistochemistry analysis.

OVCAR-3 cells [3] = test: OVCAR-3 orthotopic mouse model of ovarian cancer (Example 9); type: in vivo
Experimental: as §1, with “ONA-0-v1 and 1G04” for “ONA-0-v1”, “antibodies” for “antibody”, “cancer). For each mouse, a piece of an OVCAR-3 xenograft was implanted orthotopically.” for “cancer).”, “insulin” for “inulin”
Treatment of the implanted mice began 7 days after implantation with the OVCAR-3 tumor pieces. Inoculated mice were divided into one of three treatment groups: vehicle injection control (n=9), ONA-0-v1 treatment (n=9), or 1G04 treatment (n=9). ONA-0-v1 antibody treatments were administered via intraperitoneal (i.p.) injection daily at a dose of 3 mg/kg. 1G04 antibody treatments were administered via i.p. injection TIW (three-times weekly) at a dose of 10 mg/kg. Control mice received an equal volume of vehicle daily. […] Mice were sacrificed at the end of the treatment period. Upon sacrifice, organs and tissues were collected for performance of necropsy and histopathology analysis.

T1 sequence (Q08857 30-439 limits assumed): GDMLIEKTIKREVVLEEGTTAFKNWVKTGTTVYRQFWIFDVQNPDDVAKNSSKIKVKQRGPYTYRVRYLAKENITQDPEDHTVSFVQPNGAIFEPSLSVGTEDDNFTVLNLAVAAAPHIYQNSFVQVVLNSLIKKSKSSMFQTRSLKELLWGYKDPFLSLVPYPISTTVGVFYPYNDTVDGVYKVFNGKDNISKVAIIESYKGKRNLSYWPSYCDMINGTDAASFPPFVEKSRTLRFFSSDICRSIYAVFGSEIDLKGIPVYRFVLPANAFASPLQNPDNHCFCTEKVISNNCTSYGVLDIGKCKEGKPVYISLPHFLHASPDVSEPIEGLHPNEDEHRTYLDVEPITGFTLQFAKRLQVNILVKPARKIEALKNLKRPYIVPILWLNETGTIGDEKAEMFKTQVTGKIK

B1: ONA-0-v1: murine IgA anti-CD36 antibody; heavy chain SEQ ID NO: 5, light chain SEQ ID NO: 7 (antibody)
heavy: QVQLKQSGADLVRPGASVKLSCKASGYTFTDYYINWVKQRPGQGLEWIARIYPGSGNTYYNEKFKGKATLTAEKSSSTAYMQLSSLTSEDSAVYFCARGIGGGFGMDYWGQGTSVTVSSESARNPTIYPLTLPPVLCSDPVIIGCLIHDYFPFGTMNVTWGKSGKDITTVNFPPALASGGRYTMSSQLTLPAVECPEGESVKCSVQHDSNPVQELDVNCSPTPPPPITIPSCQPSLSLQRPALEDLLLGSDASITCTLNGLRNPEGAAFTWEPSTGKDAVQKKAAQNSCGCYSVSSVLPGCAERWNSGASFKCTVTHPESGTLTGTIAKVTVNTFPPQVHLLPPPSEELALNELLSLTCLVRAFNPKEVLVRWLHGNEELSPESYLVFEPLKEPGEGATTYLVTSVLRVSAETWKQGDQYSCMVGHEALPMNFTQKTIDRLSGKPTNVSVSVIMSEGDGICY
light: SIVMTQTPKFLLVSAGDRITITCKASQSVSDDVAWYQQKPGQSPKLLIYYASNRYTGVPDRFTGSGYGTDFTFTISTVQAEDLAVYFCQQDYSSPLTFGAGTKLEIKRADAAPTVSIFPPSSEQLTSGGASVVCFLNNFYPKDINVKWKIDGSERQNGVLNSWTDQDSKDSTYSMSSTLTLTKDEYERHNSYTCEATHKTSTSPIVKSFNRNEC
modifications: ONA-0-v1 heavy chain; ONA-0-v1 light chain
B1 was tested, and the “binding to mouse CD36 in ELISA” value (mouse CD36) was “able to specifically bind”, the “binding to cells overexpressing human CD36 (FACS)” value ([1]; antibodies at 100 nM) was “bound equivalently” and the “binding to cells overexpressing human CD36 (FACS)” value ([1]; serial dilution up to 100 nM) was “specifically bound”. The “average primary tumor weight” value (OVCAR-3 cells [2]; 3 mg/kg i.p. daily) was 1.058 g, the “decrease of primary tumor weight vs vehicle” value (OVCAR-3 cells [2]; 3 mg/kg i.p. daily) was 43% and the “SR (Sirius red) positive area of primary tumors” value (OVCAR-3 cells [2]; collagenous and fibrotic areas) was 22.5%. The “percent necrosis of primary tumors” value (OVCAR-3 cells [2]; histology, pathologist quantification) was “approximately 40.71%”, the “animals with large metastasis (>5 mm) in the peritoneal wall” value (OVCAR-3 cells [2]; macroscopic analysis) was “no large metastasis were detected” and the “animals with no metastasis in the peritoneal wall” value (OVCAR-3 cells [2]; macroscopic analysis) was 63%. The “animals with small metastasis (1-2 mm) in the peritoneal wall” value (OVCAR-3 cells [2]; macroscopic analysis) was 38%, the large liver metastasis (OVCAR-3 cells [2]; macroscopic analysis) was 6% and the “mice without metastasis in the liver” value (OVCAR-3 cells [2]; macroscopic analysis) was 50%. For the same molecule, the small liver metastasis (OVCAR-3 cells [2]; macroscopic analysis) was 44%, the “decrease in total number of metastases relative to vehicle” value (OVCAR-3 cells [3]; ONA-0-v1 3 mg/kg i.p. daily, 1G04 10 mg/kg i.p. TIW) was “approximately 45%” and the “mice free of metastasis in the liver” value (OVCAR-3 cells [3]; macroscopic analysis) was 78%. For the same molecule, the “mice having 1-2 mm metastasis in the liver” value (OVCAR-3 cells [3]; macroscopic analysis) was 17%, the “mice having 1-2 mm metastasis in the peritoneal wall” value (OVCAR-3 cells [3]; macroscopic analysis) was 19% and the “mice having 2-5 mm metastasis in the liver” value (OVCAR-3 cells [3]; macroscopic analysis) was 6%. For the same molecule, the “mice having 2-5 mm metastasis in the peritoneal wall” value (OVCAR-3 cells [3]; macroscopic analysis) was 19%, the “mice having <1 mm metastasis in the liver” value (OVCAR-3 cells [3]; macroscopic analysis) was “none” and the “mice having >5 mm metastasis in the peritoneal wall” value (OVCAR-3 cells [3]; macroscopic analysis) was 19%. For the same molecule, the “mice metastasis-free in the peritoneal wall” value (OVCAR-3 cells [3]; macroscopic analysis) was 44%, the “animals free of metastases in the lung” value (OVCAR-3 cells [3]; microscopic analysis) was 44% and the “mean metastasis number in the lungs per mouse” value (OVCAR-3 cells [3]; microscopic analysis) was 1.6. The “weight of mice throughout the treatment period” value (OVCAR-3 cells [3]; mouse, in vivo) was “remained the same” and the “total number of metastases counted” value (OVCAR-3 cells [3]; visual inspection of organs, sum per group) was 29.
